The results in this text go back to paper PMC5124963, “Negative feedback regulation of ABA biosynthesis in peanut (Arachis hypogaea): a transcription factor complex inhibits AhNCED1 expression during water stress”.

This data set deals with T1, GST-AhAREB1 (Arachis hypogaea, UniProt G4X5C6 1-445).
T1 sequence: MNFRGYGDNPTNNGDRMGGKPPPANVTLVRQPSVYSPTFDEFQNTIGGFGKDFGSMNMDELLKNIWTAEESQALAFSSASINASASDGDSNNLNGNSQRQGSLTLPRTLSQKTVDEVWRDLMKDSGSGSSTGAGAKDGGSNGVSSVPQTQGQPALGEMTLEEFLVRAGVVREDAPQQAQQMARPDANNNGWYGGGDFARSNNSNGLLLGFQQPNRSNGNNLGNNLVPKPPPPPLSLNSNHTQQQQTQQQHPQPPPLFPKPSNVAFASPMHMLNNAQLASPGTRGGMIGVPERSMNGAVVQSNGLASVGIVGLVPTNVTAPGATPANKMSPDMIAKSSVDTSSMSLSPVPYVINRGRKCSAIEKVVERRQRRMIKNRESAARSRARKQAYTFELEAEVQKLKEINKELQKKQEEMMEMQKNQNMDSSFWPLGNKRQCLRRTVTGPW
Nature of the data set: EMSA; LightShift Chemiluminescent EMSA kit (Pierce); buffer, salt, pH and temperature not stated. Conditions: protein: recombinant; tags: N-terminal GST (pGEX-4T-1); chain copies: 2; label: biotin. For orientation: Mobility shift assays separate free from complexed probe on a gel.

B1: WT probe, AhNCED1 promoter ABRE/NACRE (-1367) (dsDNA)
DNA 1: CTCATCAATTATCACGTGTGATTGCTCTCA
DNA 2: TGAGAGCAATCACACGTGATAATTGATGAG
Regarding B1, the binding result was “binds”.
